Data: patent US20110091971A1, “Differentiation of Pluripotent Stem Cells” (priority 2008, published 2011)
Positions count from the first letter of the chain named.

B1: ACTN6: activin A variant peptide, SEQ ID 7 (protein)
chain: GLECDGKVNLCCKKQWFVSFKDIGWNDWIIAPSGYHANRCSGKCPSHIAGTSGSSLSFHSTVINHYRMRGHSPFADMGACCIPTKLRPMSMLYYDDGQNIIKKDIQNMIVEECGCS
modifications: Sytnthetic Construct
B2: ACTN10: activin A variant peptide, SEQ ID 11 (protein)
chain: B1 chain with L10Y, W16D, K43L, D76Q, A79S
B3: ACTN7: activin A variant peptide, SEQ ID 8 (protein)
chain: B1 chain with L10Y, W16H, R39S, K43L, A75S, D76Q, A79S
B4: ACTN46: activin A variant peptide, SEQ ID 47 (protein)
chain: B1 chain with W16N, R39E, S41G, K43L, F74H, D76N, M77R
B5: ACTN49: activin A variant peptide, SEQ ID 50 (protein)
chain: B1 chain with W16D, S41D, K43L, A75S, A79S, I82V
B6: ACTN8: activin A variant peptide, SEQ ID 9 (protein)
chain: B1 chain with L10Y, W16D, R39K, A75S, A79S, I82V
B7: ACTN11: activin A variant peptide, SEQ ID 12 (protein)
chain: B1 chain with W16L, R39H, K43L, D76Q
B8: ACTN9: activin A variant peptide, SEQ ID 10 (protein)
chain: B1 chain with L10Y, W16D, R39K, S41T, M77L
B9: ACTN50: activin A variant peptide, SEQ ID 51 (protein)
chain: GLECDGKVNICCKKQLFGRTKDIGWNDWIIAPSGYHGGGCSGECPSHIAGTSGSSLSFHSTVINHYRMRGHSPVANLKSCCSPTKLRPMSMLYYDDGQNIIKKDIQNMKVEECGCT
B10: ACTN94: activin A variant peptide, SEQ ID 95 (protein)
chain: B9 chain with L16S, R19Q, T20A, S41T, V74W, N107R, K109V, V110A
B11: ACTN69: activin A variant peptide, SEQ ID 70 (protein)
chain: B9 chain with L16S, R19K, S41T, V74F, N107Q, K109V
B12: ACTN65: activin A variant peptide, SEQ ID 66 (protein)
chain: B9 chain with L16S, R19Q, G39S, V74F, N107G
B13: ACTN51: activin A variant peptide, SEQ ID 52 (protein)
chain: B9 chain with L16S, R19Q, V74F, N107R, K109V
B14: ACTN81: activin A variant peptide, SEQ ID 82 (protein)
chain: B9 chain with R19K, S41T, N107R, K109V
B15: ACTN77: activin A variant peptide, SEQ ID 78 (protein)
chain: B9 chain with L16M, R19K, T20A, S41T, V74W, K109V
B16: ACTN56: activin A variant peptide, SEQ ID 57 (protein)
chain: B9 chain with L16S, R19Q, T20A, G39S, S41T, V74F, S82A, K109V, T116V
B17: ACTN91: activin A variant peptide, SEQ ID 92 (protein)
chain: B9 chain with L16S, V74W, K109V

Test system: H1 or H9 human embryonic stem cells
Test: Activin A bioassay: differentiation of human embryonic stem cells to definitive endoderm, cell number and SOX17 intensity by high content analysis (96-well, four days);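 for Cell Number average: Raw total cell count per well from high content imaging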;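 for Sox 17 Intensity average: total fluorescence of the cell multiplied by cell area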
Format: cell-based
Conditions: for Sox 17 Intensity % of control: control = R&D Sys Activin A 100 ng/ml on same plate
Method in brief: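 Read-out was cell count and integrated SOX17 immunofluorescence by high-content imaging, with each well divided by the mean of the 100 ng/ml activin A control. Over the four-day culture, test samples were given in DMEM:F12 with 0.5% FCS plus 20 ng/ml Wnt3a for the first two days and in 2% FCS alone for the last two. Cells were H1 or H9 hESC clusters grown on Matrigel.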

[1] = supernatant concentration 1x, assay dilution 1:20
[2] = supernatant concentration 10x, assay dilution 1:20
[3] = supernatant concentration 10x, assay dilution 1:40
[4] = supernatant concentration 10x, assay dilution 1:20, assay plates #007, #009, #010

Molecule	Cell Number average [1]	Sox 17 Intensity average [1]	Sox 17 Intensity % of control [1]	Cell Number average [2]	Sox 17 Intensity average [2]	Sox 17 Intensity % of control [2]	Cell Number average [3]	Sox 17 Intensity average [3]	Sox 17 Intensity % of control [3]	Cell Number average [4]	Sox 17 Intensity average [4]
B1	939	1.234E+07	6.7%	2359	2.272E+07	12.4%	1790	1.426E+07	7.8%		
B2	7417	7.52E+05	2.9%	8942	1.08E+06	4.2%	7333	5.59E+05	2.2%		
B3	1133	1.108E+07	6.0%	2714	1.904E+07	10.4%	1387	1.099E+07	6.0%		
B4						14.1%				20757	1.99E+07
B5						11.3%				10076	1.60E+07
B6	363	5.578E+06	3.0%	1419	1.181E+07	6.4%	372	3.869E+06	2.1%		
B7	5239	3.47E+06	13.4%	10321	4.06E+07	156.8%	9493	2.79E+07	107.8%		
B8	11391	5.97E+05	2.3%	11456	6.63E+05	2.6%	9608	4.19E+05	1.6%		
B9						12.2%				22171	1.72E+07
B10						10.7%				20142	1.51E+07
B11						19.4%				20178	2.73E+07
B12						22.9%				22058	3.23E+07
B13						13.1%				21780	1.85E+07
B14						11.4%				19897	1.60E+07
B15						20.0%				17696	2.82E+07
B16						19.8%				23413	2.79E+07
B17						7.9%				17043	1.12E+07
